Molecular target: Gal4 DNA-Binding Domain (DBD) linked to the LOV domain of WC-1 (N. crassa) (UniProt Q01371)
Experiment: two-hybrid; Y2H-like optogenetic switch (FUN-LOV variants) in S. cerevisiae BY4741 or 59A-EC1118; genome-integrated luciferase reporter under P_GAL1 or P_5XGAL1; constant blue light or a single 2-h blue-light pulse (466 nm, 24 umol m^-2 s^-1) compared with constant darkness; 25°C, SC medium with 1 mM luciferin

Chain of UniProt Q01371 (Q01371 381-508): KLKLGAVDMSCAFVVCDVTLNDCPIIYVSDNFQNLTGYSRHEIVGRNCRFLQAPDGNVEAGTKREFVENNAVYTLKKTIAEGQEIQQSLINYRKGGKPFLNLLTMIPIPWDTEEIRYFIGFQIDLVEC

Substance: Gal4-activation domain (AD) tethered to the LOV domain of VVD (from UniProt Q9C3Y6 1-186) (domain or fragment)
- fold induction of luciferase expression (blue-light pulse / darkness), 59A-EC1118 strain, P 5XGAL1-Luc: 982 fold

Reference: article PMC9705753
